The results in this text go back to patent CN107043422A (CHENGDU KANGHONG BIOLOGICAL TECH CO LTD, dated 2017).

The target of assay [1] is T1, 大鼠血清中的补体因子D (rat serum complement factor D) (大鼠 (rat), UniProt P32038 26-263).
T1 sequence (looked up): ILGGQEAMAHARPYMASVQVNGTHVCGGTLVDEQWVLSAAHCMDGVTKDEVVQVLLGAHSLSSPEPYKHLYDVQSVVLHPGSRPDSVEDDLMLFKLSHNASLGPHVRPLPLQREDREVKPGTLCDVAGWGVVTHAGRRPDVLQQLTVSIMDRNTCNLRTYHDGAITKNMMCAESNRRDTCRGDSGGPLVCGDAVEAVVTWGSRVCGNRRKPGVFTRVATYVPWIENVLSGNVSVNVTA
Nature of the assay: cell-based or functional assay.

In another assay the target is T2, 人CFD蛋白 (人 (human), UniProt P00746 26-253, limits assumed).
T2 construct: also called human complement factor D
Nature of the assay: BLI (Octet QK), human CFD on Ni-NTA biosensor, KH-A at 125 nM in rabbit vitreous fluid. A general note: In BLI a coated tip is dipped into the sample, and binding shifts an interference pattern.

Assay [2] deals with T3, 猪CFD (猪 (pig), UniProt P51779 27-259, limits assumed).
T3 construct: Transiently expressed in DG44 cells; The culture supernatant was used unpurified in the Octet assay; also called pig CFD; 猪(GeneID:396877)
Nature of the assay: BLI (Octet QK), antibody on Protein A biosensor, CFD transfection supernatant in solution.

Assay [3] deals with T3, 猪CFD. Nature of the assay: BLI (Octet QK), His-tagged CFD supernatant on Ni-NTA biosensor, Fab at 10 μg/ml.

Residue numbers refer to the chain shown, from its start.

T3 sequence (P51779 other isoform, or with tags, fused parts or gaps limits assumed): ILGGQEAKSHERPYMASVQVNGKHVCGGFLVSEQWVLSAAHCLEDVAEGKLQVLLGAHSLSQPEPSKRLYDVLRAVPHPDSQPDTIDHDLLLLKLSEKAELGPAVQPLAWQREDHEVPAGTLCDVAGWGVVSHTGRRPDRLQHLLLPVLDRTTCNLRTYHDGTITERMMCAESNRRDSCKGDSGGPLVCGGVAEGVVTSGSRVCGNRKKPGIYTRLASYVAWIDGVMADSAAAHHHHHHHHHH
T2 sequence (P00746 26-253 limits assumed): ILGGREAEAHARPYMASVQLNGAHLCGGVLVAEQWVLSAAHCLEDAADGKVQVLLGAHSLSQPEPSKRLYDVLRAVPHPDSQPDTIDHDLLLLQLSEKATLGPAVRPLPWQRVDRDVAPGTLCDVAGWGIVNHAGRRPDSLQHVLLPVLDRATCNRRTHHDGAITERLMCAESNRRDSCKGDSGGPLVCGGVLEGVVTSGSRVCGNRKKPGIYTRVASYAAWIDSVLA

B1: KH-A (antibody, human IgG4 S228P, kappa, V domains shown)
VH: QVQLVQSGPELKKPGASVKVSCKASGYTFTNYGMNWVRQAPGQGLEWMGWINTYTGETTYADDFKGRFVFSLDTSVSTAYLQISSLKAEDTAVYYCEREGGVNYWGQGTLVTVSS
VL: DIQVTQSPSSLSASVGDRVTITCITSTDIDDDMNWYQQKPGKVPKLLISGGATLRPGVPSRFSGSGSGTDFTLTISSLQPEDVATYYCLQSDSLPYTFGQGTKLEIKR
notes: Full-length humanized anti-complement factor D antibody expressed in CHO-S cells; also called 抗体KH-A; 全长抗体KH-A
In the case of B1, the “IC50, 全长抗体抑制大鼠血清致兔红细胞溶血 (ACH50法, 补体旁路途径活性)” value in assay [1] was 3860 µg/mL. Besides, the binding result in the assay with 人CFD蛋白 and in the assay with 猪CFD [2] was “binds” in each case.

B2: KH021 (Fab, V domains shown)
VH: B1 VH with Y104S
VL: B1 VL with M33V, A52N, L89M
notes: Fab expressed in the E. coli periplasm; also called Fab抗体KH021
Turning to B2, the binding result in the assay with 猪CFD [3] is recorded as “binds”.

B3: KH-F (antibody, human IgG4 S228P, kappa, V domains shown)
VH: B1 VH with Y104S
VL: B1 VL with M33V, A52N, L89M
notes: also called 全长抗体KH-F
As to B3, in assay [1], the “IC50, 全长抗体抑制大鼠血清致兔红细胞溶血 (ACH50法, 补体旁路途径活性)” value is 3960 µg/mL. For the same molecule, the binding result with 猪CFD [2] is given as “binds”.

B4: KH027 (Fab, V domains shown)
VH: B1 VH
VL: B1 VL
notes: Fab expressed in the E. coli periplasm; also called Fab抗体KH027
Take B4: the binding result with 猪CFD [3] is “binds”.
